Measured values reported in patent US20120316071A1 (published 2012).

Assays:
[1] = molecular target: T1, rHuman EGF R/Fc Chimera, CF (R&D Systems Cat#344-ER) (human, UniProt P00533 25-645); assay: MSD multispot ECL, antigen spotted on plate, Fab 88.1 nM; blank spot 301
T1 construct: Bought from R&D Systems; also called epidermal growth factor receptor (EGF R); not shown: Fc of the bought chimera

[2] = molecular target: T2, rHuman ErbB2/Fc Chimera, CF (R&D Systems Cat#1129-ER) (human, UniProt P04626 23-652); assay: as above
T2 construct: Bought from R&D Systems; also called human epidermal growth factor 2 receptor (ErbB2); not shown: Fc of the bought chimera

[3] = molecular target: T3, rHuman Notch-1/Fc Chimera, CF (R&D Systems Cat#3647-TK) (human, UniProt P46531 19-526); assay: as above
T3 construct: Bought from R&D Systems; not shown: Fc of the bought chimera

[4] = molecular target: T4, rHuman Erythropoietin R/Fc Chimera, CF (R&D Systems Cat#963-ER) (human, UniProt P19235 25-250); assay: as above
T4 construct: Bought from R&D Systems; also called EPO R/Fc; Epo R/Fc chimera; not shown: Fc of the bought chimera
T4 sequence (looked up): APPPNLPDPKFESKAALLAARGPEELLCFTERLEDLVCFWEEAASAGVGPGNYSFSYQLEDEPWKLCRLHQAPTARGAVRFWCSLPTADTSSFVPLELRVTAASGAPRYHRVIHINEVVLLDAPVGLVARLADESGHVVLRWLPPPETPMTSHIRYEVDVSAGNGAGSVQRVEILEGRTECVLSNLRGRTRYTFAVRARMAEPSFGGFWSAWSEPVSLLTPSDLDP

[5] = molecular target: T5, rHuman IGF-1 sR, (IGF-1 sR), CF (R&D Systems Cat#391-GR) (human, UniProt P08069 31-932); assay: as above
T5 construct: Bought from R&D Systems and called a soluble receptor; also called insulin-like growth factor-1 soluble receptor

[6] = molecular target: T6, rHuman HGF R/c-MET/Fc Chimera, CF (R&D Systems Cat#358-MT/CF) (human, UniProt P08581 25-932); assay: as above
T6 construct: Bought from R&D Systems; also called HGF R/Fc; hepatocyte growth factor receptor (HGF R/c-Met); not shown: Fc of the bought chimera

[7] = molecular target: T7, rHuman CD44/Fc Chimera, CF (R&D Systems Cat#3660-CD) (human, UniProt P16070 21-220); assay: as above
T7 construct: Bought from R&D Systems; not shown: Fc of the bought chimera

[8] = molecular target: T8, Recombinant Human DLL4 (R&D Systems Cat#1506-D4/CF) (human, UniProt Q9NR61 27-524); assay: as above
T8 construct: Bought from R&D Systems; also called rHuman DLL4; delta-like protein 4

[9] = molecular target: T9, rHuman P-Cadherin/Fc Chimera, CF (R&D Systems Cat#861-PC) (human, UniProt P22223 108-654); assay: as above
T9 construct: Bought from R&D Systems; not shown: Fc of the bought chimera

[10] = molecular target: T10, rHuman ErbB2/Fc Chimera, CF (R&D Systems Cat#1129-ER) (human, UniProt P04626 23-652); assay: ECL multispot (MSD) assay, spotted antigen; Fab 20.00 (head prints uM)
T10 construct: Bought recombinant protein; Fc part of the bought chimera not given

[11] = molecular target: T11, Recombinant Human DLL4 (R&D Systems Cat#1506-D4/CF) (human, UniProt Q9NR61 27-524); assay: as above
T11 construct: Bought recombinant protein; also called delta-like protein 4

[12] = molecular target: T12, rHuman HGF R/c-MET/Fc Chimera, CF (R&D Systems Cat#358-MT/CF) (human, UniProt P08581 25-932); assay: as above
T12 construct: Bought recombinant protein; also called HGF R/Fc; Fc part of the bought chimera not given

[13] = molecular target: T13, rHuman CD44/Fc Chimera, CF (R&D Systems Cat#3660-CD) (human, UniProt P16070 21-220); assay: as above
T13 construct: Bought recombinant protein; Fc part of the bought chimera not given

[14] = molecular target: T14, rHuman P-Cadherin/Fc Chimera, CF (R&D Systems Cat#861-PC) (human, UniProt P22223 108-654); assay: as above
T14 construct: Bought recombinant protein; Fc part of the bought chimera not given

[15] = molecular target: T15, rHuman EGF R/Fc Chimera, CF (R&D Systems Cat#344-ER) (human, UniProt P00533 25-645); assay: as above
T15 construct: Bought recombinant protein; Fc part of the bought chimera not given

[16] = molecular target: T16, rHuman IGF-1 sR, CF (R&D Systems Cat#391-GR) (human, UniProt P08069 31-932); assay: as above
T16 construct: Bought soluble receptor; The column head prints only 'IGF-1'; also called insulin-like growth factor-1 soluble receptor

[17] = molecular target: T17, rHuman Notch-1/Fc Chimera, CF (R&D Systems Cat#3647-TK) (human, UniProt P46531 19-526); assay: as above
T17 construct: Bought recombinant protein; Fc part of the bought chimera not given

[18] = molecular target: T18, Recombinant Human DLL4 (R&D Systems Cat#1506-D4/CF) (human, UniProt Q9NR61 27-524); assay: Multispot ECL (MSD), antigen spotted on plate, Fab 15.6 nM; blank spot 294
T18 construct: Bought recombinant protein; also called rHuman DLL4; delta-like protein 4

B1: Fab VH1-46_IGHD3-10*01_IGHJ4*01 & B3_IGKJ1*01 (Fab, V domains shown)
VH: QVQLVQSGAEVKKPGASVKVSCKASGYTFTSYYMHWVRQAPGQGLEWMGIINPSGGSTSYAQKFQGRVTMTRDTSTSTVYMELSSLRSEDTAVYYCAREYYYGSGSYYNDYFDYWGQGTLVTVSS
VL: not shown
notes: Tested as a Fab made in E. coli; VH was cloned into Plasmid A (CH1 constant region, His6 and Flag tags); The kappa VL was cloned into Plasmid C (kappa CL)
Work on B1 yielded an ECL signal [1] of 376, an ECL signal [2] of 200 and an ECL signal [3] of 440. For the same binder, the ECL signal [4] was 3370, the ECL signal [5] was 273 and the ECL signal [6] was 392. For the same binder, the ECL signal [7] was 340, the ECL signal [8] was 434 and the ECL signal [9] was 278.

B2: Fab VH5-51_IGHD5-18*01>3_IGHJ4*01 G100K/G104T & V3-4_IGLJ1*01 (Fab, V domains shown)
VH: EVQLVQSGAEVKKPGESLKISCKGSGYSFTSYWIGWVRQMPGKGLEWMGIIYPGDSDTRYSPSFQGQVTISADKSISTAYLQWSSLKASDTAMYYCARRKYSYTYDYFDYWGQGTLVTVSS
VL: QTVVTQEPSFSVSPGGTVTLTCGLSSGSVSTSYYPSWYQQTPGQAPRTLIYSTNTRSSGVPDRFSGSILGNKAALTITGAQADDESDYYCVLYMGSGISYVFGTGTKVTVL
notes: Tested as a Fab; The constant parts are the same as for the parent Fab (CH1 with His6/Flag tags, lambda CL); also called KT double mutant; H:KT
With B2 the ECL signal/noise ratio [10] was 1.2, the ECL signal/noise ratio [11] was 157 and the ECL signal/noise ratio [12] was 0.9. It also gave an ECL signal/noise ratio [13] of 1.1, an ECL signal/noise ratio [14] of 1.1 and an ECL signal/noise ratio [15] of 1.1. For the same binder, the ECL signal/noise ratio [16] was 1.1 and the ECL signal/noise ratio [17] was 1.2.

B3: Fab VH1-46_IGHD6-13*01_IGHJ4*01 & B3_IGKJ1*01 (Fab, V domains shown)
VH: QVQLVQSGAEVKKPGASVKVSCKASGYTFTSYYMHWVRQAPGQGLEWMGIINPSGGSTSYAQKFQGRVTMTRDTSTSTVYMELSSLRSEDTAVYYCAREGYSSSWYDYFDYWGQGTLVTVSS
VL: not shown
notes: Germline Fab made in E. coli; VH was cloned into Plasmid A (CH1, His6 and Flag tags) and the kappa VL into Plasmid C (kappa CL)
With B3 the ECL signal [18] was 525.
